Laboratory results taken from publication PMC8660007 (Protein Engineering, Design and Selection, 2021).

B1: Ac-LDPETGELL-NH2 (peptide)
peptide: Ac-LDPETGELL-NH2
notes: phage display-derived peptide DPETGEL extended by two flanking leucines; also called modified phage display-derived peptide; Modified phage display-derived free peptide; source: synthetic peptide (Cambridge Peptides Ltd)
B2: Ac-DPETGEL-NH2 (peptide)
peptide: Ac-DPETGEL-NH2
notes: peptide found by phage display (Hancock et al. 2012); also called phage display-derived peptide; phage display-derived free peptide; source: synthetic peptide (Cambridge Peptides Ltd)

Columns and labels:
Modified Phage CTPR2 = assay: ITC; 166.6 uM Keap1 titrated into 16.66 uM CTPR or peptide; 50 mM Tris-HCl 150 mM NaCl 0.5 mM TCEP pH 8; 20 injections of 2 ul; one-site binding model
[1] = molecular target: T1, Keap1 Kelch domain construct (residues 321-624) (UniProt Q14145 321-624); assay: as above; conditions: both partners purified
T1 construct: Keap1 Kelch domain, residues 321-624; pNIC28-BSA4 vector with a TEV cleavage site after the His-tag; gift of Alex Bullock (Structural Genomics Consortium, Oxford); No TEV cleavage is described in the purification; also called Kelch domain of Keap1; source: E. coli C41, purified (Ni-NTA, size exclusion chromatography)
T1 sequence (Q14145 321-624): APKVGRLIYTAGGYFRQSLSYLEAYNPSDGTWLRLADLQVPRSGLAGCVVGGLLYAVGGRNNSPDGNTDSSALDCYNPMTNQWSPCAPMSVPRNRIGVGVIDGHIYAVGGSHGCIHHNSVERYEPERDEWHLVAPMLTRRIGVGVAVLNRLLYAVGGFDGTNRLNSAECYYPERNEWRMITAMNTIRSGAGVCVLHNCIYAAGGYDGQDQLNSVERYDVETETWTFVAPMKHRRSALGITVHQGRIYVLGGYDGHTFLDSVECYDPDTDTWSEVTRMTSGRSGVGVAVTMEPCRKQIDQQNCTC

Molecule	Kd (Modified Phage CTPR2) [nM]	Kd [1] [nM]
Keap1 Kelch domain construct (residues 321-624) (from UniProt Q14145 321-624) (domain or fragment)	22	
B1		4.65
B2		341
